B1: Cadherin-1 (Mus musculus), P09803 (parent)
chain: MGARCRSFSALLLLLQVSSWLCQELEPESCSPGFSSEVYTFPVPERHLERGHVLGRVRFEGCTGRPRTAFFSEDSRFKVATDGTITVKRHLKLHKLETSFLVRARDSSHRELSTKVTLKSMGHHHHRHHHRDPASESNPELLMFPSVYPGLRRQKRDWVIPPISCPENEKGEFPKNLVQIKSNRDKETKVFYSITGQGADKPPVGVFIIERETGWLKVTQPLDREAIAKYILYSHAVSSNGEAVEDPMEIVITVTDQNDNRPEFTQEVFEGSVAEGAVPGTSVMKVSATDADDDVNTYNAAIAYTIVSQDPELPHKNMFTVNRDTGVISVLTSGLDRESYPTYTLVVQAADLQGEGLSTTAKAVITVKDINDNAPVFNPSTYQGQVPENEVNARIATLKVTDDDAPNTPAWKAVYTVVNDPDQQFVVVTDPTTNDGILKTAKGLDFEAKQQYILHVRVENEEPFEGSLVPSTATVTVDVVDVNEAPIFMPAERRVEVPEDFGVGQEITSYTAREPDTFMDQKITYRIWRDTANWLEINPETGAIFTRAEMDREDAEHVKNSTYVALIIATDDGSPIATGTGTLLLVLLDVNDNAPIPEPRNMQFCQRNPQPHIITILDPDLPPNTSPFTAELTHGASVNWTIEYNDAAQESLILQPRKDLEIGEYKIHLKLADNQNKDQVTTLDVHVCDCEGTVNNCMKAGIVAAGLQVPAILGILGGILALLILILLLLLFLRRRTVVKEPLLPPDDDTRDNVYYYDEEGGGEEDQDFDLSQLHRGLDARPEVTRNDVAPTLMSVPQYRPRPANPDEIGNFIDENLKAADSDPTAPPYDSLLVFDYEGSGSEAASLSSLNSSESDQDQDYDYLNEWGNRFKKLADMYGGGEDD

Variants of: B1
Conditions: with skp2_human SKP2, Q13309
Chain of skp2_human SKP2, Q13309 (Q13309 whole entry): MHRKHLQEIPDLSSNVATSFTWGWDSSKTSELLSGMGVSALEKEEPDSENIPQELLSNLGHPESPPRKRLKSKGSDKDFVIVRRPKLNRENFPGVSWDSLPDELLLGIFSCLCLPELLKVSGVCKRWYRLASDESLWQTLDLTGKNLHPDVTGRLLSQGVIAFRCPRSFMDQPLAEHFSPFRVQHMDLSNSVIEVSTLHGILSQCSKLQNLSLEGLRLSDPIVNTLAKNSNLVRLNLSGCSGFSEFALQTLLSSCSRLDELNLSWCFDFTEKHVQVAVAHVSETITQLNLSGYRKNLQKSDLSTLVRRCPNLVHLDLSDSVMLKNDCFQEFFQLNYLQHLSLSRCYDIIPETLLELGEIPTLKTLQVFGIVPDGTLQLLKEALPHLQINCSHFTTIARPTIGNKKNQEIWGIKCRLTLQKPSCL

Row | effect of a mutation on the interaction | Variant
1 | decreasing interaction strength | S840A;S842A;S846A;S849A;S852A;S855A

Reference: IntAct's records for PubMed 22770219
